Measurements as given in patent publication US20220401524A1.

How the values were obtained:
complement C1q (human) [1] = target: complement C1q (human) (UniProt P02745); test: cell-based or functional assay
complement C1q (human) [2] = target: complement C1q (human) (UniProt P02745); test: flow cytometry, vWF on cholesterol crystals with C1q against crystals without C1q
complement C1q (human) [3] = target: complement C1q (human) (UniProt P02745); test: flow cytometry, vWF (10 µg/ml) bound to C1q immobilized on cholesterol crystals, mean of n=5

Sequence of UniProt P02745 (P02745 23-245, chain 1 of 3): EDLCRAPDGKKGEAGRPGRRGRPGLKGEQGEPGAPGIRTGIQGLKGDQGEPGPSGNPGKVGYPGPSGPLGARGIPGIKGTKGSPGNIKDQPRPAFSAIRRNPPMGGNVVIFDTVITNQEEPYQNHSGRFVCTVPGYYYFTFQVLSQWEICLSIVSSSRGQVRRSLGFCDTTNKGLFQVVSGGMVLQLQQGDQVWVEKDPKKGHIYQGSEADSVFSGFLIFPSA
Sequence of UniProt P02745 (chain, as listed by the source, chain 2 of 3): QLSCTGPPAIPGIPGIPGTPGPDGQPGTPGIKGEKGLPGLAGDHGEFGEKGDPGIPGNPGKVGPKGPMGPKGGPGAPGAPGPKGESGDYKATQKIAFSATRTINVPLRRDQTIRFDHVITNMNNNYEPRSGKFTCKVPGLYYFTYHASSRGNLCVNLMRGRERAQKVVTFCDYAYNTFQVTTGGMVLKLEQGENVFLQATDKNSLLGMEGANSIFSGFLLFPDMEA
Sequence of UniProt P02745 (chain, as listed by the source, chain 3 of 3): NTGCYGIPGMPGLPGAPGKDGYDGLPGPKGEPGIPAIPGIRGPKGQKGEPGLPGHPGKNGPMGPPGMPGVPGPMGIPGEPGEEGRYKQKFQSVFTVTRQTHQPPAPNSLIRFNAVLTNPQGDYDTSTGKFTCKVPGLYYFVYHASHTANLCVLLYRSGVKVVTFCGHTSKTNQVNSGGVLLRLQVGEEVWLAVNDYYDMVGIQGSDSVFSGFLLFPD

A caspase-1 activity of HMDMs (% CD11c+ cells in FLICA+ gate) (complement C1q (human) [1]) of 9.37%, an early phagocytosis of pHrodo-dyed CC complexes by HMDMs (30 min, % CD11c+ cells in pHrodo Red Ester+ gate) (complement C1q (human) [1]) of 54.5% and a late phagocytosis of CC complexes by HMDMs (18 hr, % CD11c+ cells in SSC high gate) (complement C1q (human) [1]) of 13.7% were found for “recombinant von Willebrand factor (from UniProt P04275 764-2813) (ligand)” in this work. For the same substance, the fold gMFI against CC without C1q (complement C1q (human) [2]) was 67 fold and the gMFI (complement C1q (human) [3]) was 134000 gMFI.
